# Values joined by “and” are separate entries in the source; they are usually repeats but may differ in a detail not shown here. Identical values can stand only once.
# Legend:
# [1] = target: T1, SARS-CoV-2 (Wuhan-Hu-1 strain) spike glycoprotein on pseudotyped virus particles (SARS-CoV-2, UniProt P0DTC2 14-1273); assay: cell-based or functional assay
# [2] = target: SARS-CoV-2 Munich strain spike glycoprotein on authentic virus (SARS-CoV-2); assay: cell-based or functional assay
# [3] = target: SARS-CoV-2 spike glycoprotein (Wuhan-Hu-1 strain) on pseudotyped virus particles (SARS-CoV-2 (Wuhan-Hu-1 strain), UniProt P0DTC2 14-1273); assay: cell-based or functional assay
# [4] = target: SARS-CoV-2 spike glycoprotein on authentic virus (Munich strain) (SARS-CoV-2 (Munich strain), UniProt P0DTC2 14-1273); assay: cell-based or functional assay
# [5] = target: SARS-CoV-2 spike receptor-binding domain (RBD) (SARS-CoV-2, UniProt P0DTC2 319-541); assay: indirect ELISA, RBD coated on plate, 4PL fit
# [6] = target: T1, SARS-CoV-2 (Wuhan-Hu-1 strain) spike …; assay: cell-based or functional assay; remark: listed apart in the source
# [7] = target: SARS-CoV-2 spike glycoprotein on authentic SARS-CoV-2 (Munich strain, SARS-CoV-2/München-1.1/2020/929) (SARS-CoV-2, UniProt P0DTC2 14-1273); assay: cell-based or functional assay
# [8] = target: SARS-CoV-2 spike glycoprotein on pseudotyped SARS-CoV-2 (Wuhan-Hu-1 strain) particles (SARS-CoV-2, UniProt P0DTC2 14-1273); assay: cell-based or functional assay
Binder,Pseudo-neut IC50 Luciferase [1] [nM],Authentic virus PRNT IC50 [2] [nM],Pseudo-neutralization IC50 (Luciferase) [3] [nM],Authentic virus PRNT IC50 [4] [nM],ELISA affinity [5] [nM],further results
Nb64 (VHH) VHH: QVQLVESGGGLVQAGGSLRLSCAVSGRTFSIAGMGWFRQAPGKDREFLGGITWNDGTTWYADSVKGRFTISRDNAKNMLSLRMNSLKPEDTAVYYCAAGPRLGSTPRAYDYWGQGTQVTVSS,4.13,4.88,–,–,–,–
"Nb16 (VHH) VHH: DVQLVESGGGLVQAGESLRLSCAASGDMFSSNAMAWYRQAPGKQRELVASITSGGNTNYADSVKGRFTISRDNAKNTVYLQMDSLKPEDTAVYYCNGVAYDYSWGRPRNFWGQGTQVTVSS [Nb16, listing 1 of 2 here]",–,–,1.57,3.16,0.37,–
"Nb16 (VHH) VHH: DVQLVESGGGLVQAGESLRLSCAASGDMFSSNAMAWYRQAPGKQRELVASITSGGNTNYADSVKGRFTISRDNAKNTVYLQMDSLKPEDTAVYYCNGVAYDYSWGRPRNFWGQGTQVTVSS [Nb16, listing 2 of 2 here]",1.57,1.23,–,–,–,–
"Nb17 (VHH) VHH: HVQLVESGGGLVQAGGSLRLSCAASGSIFSSNAMSWYRQAPGKQRELVASITSGGNADYADSVKGRFTISRDKNTVYPEMSSLKPADTAVYYCHAVGQEASAYAPRAYWGQGTQVTVSS [Nb17, listing 1 of 2 here]",1.11,1.5,–,–,–,"IC50, virus neutralization in vitro (assay not stated) [6]: ~0.025 µg/mL; neutralization of SARS-CoV-2 (assay not stated) [6]: ≤ 100 ng/mL"
"Nb17 (VHH) VHH: HVQLVESGGGLVQAGGSLRLSCAASGSIFSSNAMSWYRQAPGKQRELVASITSGGNADYADSVKGRFTISRDKNTVYPEMSSLKPADTAVYYCHAVGQEASAYAPRAYWGQGTQVTVSS [Nb17, listing 2 of 2 here]",–,–,1.1,1.5,–,–
"Nb20 (VHH) VHH: QVQLVESGGGLVQAGGSLRLSCAVSGAGAHRVGWFRRAPGKEREFVAAIGASGGMTNYLDSVKGRFTISRDNAKNTIYLQMNSLKPQDTAVYYCAARDIETAEYIYWGQGTQVTVSS [Nb20, listing 1 of 2 here]",–,–,0.114,0.0422,–,Pseudo-neutralization (GFP) [3]: < 0.5 nM
Nb21 (VHH) VHH: QVQLVESGGGLVQAGGSLRLSCAVSGLGAHRVGWFRRAPGKEREFVAAIGANGGNTNYLDSVKGRFTISRDNAKNTIYLQMNSLKPQDTAVYYCAARDIETAEYTYWGQGTQVTVSS,–,–,0.038,0.0448,–,Pseudo-neutralization (GFP) [3]: < 0.5 nM
"Nb78 (VHH) VHH: QVQLVESGGGLVQAGGSLRLSCAISGASANRVGWFRRAPGKEREFVAAIGASGGMTNYLDSVKGRFTISRDNAKNTVYLQMNSLKPQDTAVYYCAARNIETAEYTYWGQGTQVTVSS [Nb78, listing 1 of 2 here]",–,–,0.509,0.766,0.61,–
"Nb11 (VHH) VHH: HVQLVESGGGLVQAGGSLRLSCAVSGASAERVGWFRRAPGKEREFVAAIGANGGSTNYLDSVKGRFTISRDNAKNTVYLQMNSLKPQDTAVYYCAARNLETFDYTYWGRGTQVTVSS [Nb11, listing 1 of 2 here]",–,–,1,0.78,0.39,–
Nb89 (VHH) VHH: HVQLVESGGGLVQAGGSLRLSCAASGGTFTTFRMAWFRQTPGKEREFVAASSWGFVNYADPVKGRFTISRDNAKNTVYLEMSSLKTEDTAVYYCAARNPGTGQYDYWGQGTQVTVSS,0.133,0.154,–,–,–,"Pseudo-neutralization (GFP) [1]: < 0.5 nM; IC50, pseudovirus assay [6]: 2 ng/ml and 0.129 nM"
Nb99 (VHH) VHH: QVQLVESGGGLVQTGGSLRLSCAASGSTRSIWYSGWYRQAPGKQRELVASLTSGGTTYYPDSMKGRFTISGSSGLNMVYLQMNSLRPEDTAVYSCNVRTGSGVYWGQGTQVTVSS,0.524,0.452,–,–,–,–
"Nb34 (VHH) VHH: DVQLVESGGGLVQAGGSLRLSCAASGFTFSNYVMYWGRQAPGKGREWVSGIDSDGSDTAYASSVKGRFTISRDNAKNTLYLQMNNLKPEDTALYYCVKSKDPYGSPWTRSEFDDYWGQGTQVTVSS [Nb34, listing 1 of 2 here]",–,–,2,1.12,0.47,–
"Nb34 (VHH) VHH: DVQLVESGGGLVQAGGSLRLSCAASGFTFSNYVMYWGRQAPGKGREWVSGIDSDGSDTAYASSVKGRFTISRDNAKNTLYLQMNNLKPEDTALYYCVKSKDPYGSPWTRSEFDDYWGQGTQVTVSS [Nb34, listing 2 of 2 here]",1.99,1.12,–,–,–,neutralization of SARS-CoV-2 (assay not stated) [6]: < 150 ng/mL
"Nb9 (VHH) VHH: HVQLVESGGGLVQTGGSLRLSCAFSGYTFSTFPTAWFRQAPGKEREFVAGIRWNGGSRDYTEYADFVKGRFTISRDNAKNMIYLQMISLKPEDTALYYCAASHGVVDGTSVNGYRYWGQGTQVTVSS [Nb9, listing 1 of 2 here]",1.5,1.72,–,–,–,–
"Nb9 (VHH) VHH: HVQLVESGGGLVQTGGSLRLSCAFSGYTFSTFPTAWFRQAPGKEREFVAGIRWNGGSRDYTEYADFVKGRFTISRDNAKNMIYLQMISLKPEDTALYYCAASHGVVDGTSVNGYRYWGQGTQVTVSS [Nb9, listing 2 of 2 here]",–,–,1.5,1.72,0.89,–
Nb107 (VHH) VHH: HVQLVESGGGLVQAGGSLRLSCAASGRAIGIHRMAWFRQAPGKERAFVAAIQWTGDMPTYADSLKGRFTISADNAKNTVSLQMTSLKPDDTAVYYCAARSATTALYDYWGQGTQVTVSS,0.569,0.181,–,–,–,–
Nb48 (VHH) VHH: HVQLVESGGGLVQAGGSLRLSCAASGSIFRHYNMGWFRQAPGKEREFVSAISWTNIGTYYADSVKGRFSISRDNNRNTAYLEMNSLKPEDTAVYYCAADRSEFGSRLYSDENEYDYWGQGTQVTVSS,–,–,–,–,1.08,Pseudo-neutralization (GFP) [3]: 500 nM
"Nb11 (VHH) VHH: HVQLVESGGGLVQAGGSLRLSCAVSGASAERVGWFRRAPGKEREFVAAIGANGGSTNYLDSVKGRFTISRDNAKNTVYLQMNSLKPQDTAVYYCAARNLETFDYTYWGRGTQVTVSS [Nb11, listing 2 of 2 here]",1.08,0.8,–,–,–,–
"Nb78 (VHH) VHH: QVQLVESGGGLVQAGGSLRLSCAISGASANRVGWFRRAPGKEREFVAAIGASGGMTNYLDSVKGRFTISRDNAKNTVYLQMNSLKPQDTAVYYCAARNIETAEYTYWGQGTQVTVSS [Nb78, listing 2 of 2 here]",0.509,0.766,–,–,–,–
"Nb20 (VHH) VHH: QVQLVESGGGLVQAGGSLRLSCAVSGAGAHRVGWFRRAPGKEREFVAAIGASGGMTNYLDSVKGRFTISRDNAKNTIYLQMNSLKPQDTAVYYCAARDIETAEYIYWGQGTQVTVSS [Nb20, listing 2 of 2 here]",0.102,–,–,–,–,"Pseudo-neutralization (GFP) [1]: < 0.5 nM; IC50, pseudovirus assay [6]: 0.0016 µg/mL"
"Nb36 (VHH) VHH: HVQLVESGGGLVQAGGSLTLTCAASGRTFSSETMDMGWFRQAPGKEREFVAADSWNDGSTYYADSVKGRFTISRDSAKNTLYLQMNSLKPEDTAVYYCAAETYSIYEKDDSWGYWGQGTQVTVSS [Nb36, listing 1 of 2 here]",–,–,7,–,1.04,–
"Nb36 (VHH) VHH: HVQLVESGGGLVQAGGSLTLTCAASGRTFSSETMDMGWFRQAPGKEREFVAADSWNDGSTYYADSVKGRFTISRDSAKNTLYLQMNSLKPEDTAVYYCAAETYSIYEKDDSWGYWGQGTQVTVSS [Nb36, listing 2 of 2 here]",1.56,–,–,–,–,neutralization of SARS-CoV-2 (assay not stated) [6]: ≤ 100 ng/mL
Nb105 (VHH) VHH: HVQLVESGGGLVQAGGSLRLSCAVSGRTFSTYGMAWFRQAPGKERDFVATITRSGETTLYADSVKGRFTISRDNAKNTVYLQMNSLKIEDTAVYYCAVRRDSSWGYSRDLFEYDYWGQGTQVTVSS,–,–,–,–,–,Authentic virus PRNT IC50 [7]: 5.1 nM; Pseudo-neutralization IC50 (Luciferase) [8]: 5 nM
